Data as given in the Human Domainome abundance scans (Beltran et al. 2025).
± gives the uncertainty stated by the source.

B1: Ankyrin-2, residues 3571 to 3650; numbered along this chain, Q01484 (parent)
chain: ERLAYIADHLGFSWTELARELDFTEEQIHQIRIENPNSLQDQSHALLKYWLERDGKHATDTNLVECLTKINRMDIVHLME

Variants of: B1
Experiment: abundance fitness (aPCA) (normalised: wild type 0, dead -1); higher = more abundant; growth selection in yeast, the domain comes from the species named
Settings: Homo sapiens

Row | Variant | abundance fitness
1 | G11D | -0.052 ± 0.12
2 | G11N | 0.336 ± 0.39
3 | G11S | 0.015 ± 0.054
4 | G11R | -0.074 ± 0.063
5 | G11F | -0.039 ± 0.12
6 | G11K | -0.054 ± 0.13
7 | G11T | -0.141 ± 0.072
8 | G11W | -0.277 ± 0.099
9 | G11Q | -0.006 ± 0.079
10 | G11P | -0.536 ± 0.076
11 | G11M | -0.223 ± 0.14
12 | G11A | -0.058 ± 0.064
13 | G11L | -0.117 ± 0.058
14 | G11I | -0.271 ± 0.28
15 | G11C | -0.106 ± 0.092
16 | G11H | -0.111 ± 0.15
17 | G11Y | -0.123 ± 0.18
18 | I31G | -0.936 ± 0.1
19 | I31F | 0.023 ± 0.21
20 | I31E | -0.791 ± 0.45
21 | I31C | 0.027 ± 0.18
22 | I31D | -1 ± 0.29
23 | I31A | -0.545 ± 0.084
24 | L10Y | -0.464 ± 0.14

Row | Variant | abundance fitness
25 | A18V | -0.687 ± 0.12
26 | A18R | -1.37 ± 0.3
27 | A18P | -1.17 ± 0.22
28 | A18G | -0.128 ± 0.1
29 | A18S | -0.196 ± 0.089
30 | A18F | -1.07 ± 0.42
31 | A18M | -0.519 ± 0.19
32 | A18T | -0.903 ± 0.35
33 | A18L | -1.03 ± 0.16
34 | A18W | -0.859 ± 0.34
35 | A18D | -0.514 ± 0.38
36 | T15E | -0.185 ± 0.15
37 | T15Q | -0.083 ± 0.15
38 | T15A | -0.02 ± 0.055
39 | T15F | -0.277 ± 0.12
40 | T15L | 0.036 ± 0.061
41 | T15K | 0.079 ± 0.14
42 | T15R | -0.057 ± 0.059
43 | T15S | 0.018 ± 0.053
44 | T15Y | -0.433 ± 0.43
45 | T15G | -0.042 ± 0.06
46 | T15M | -0.21 ± 0.13
47 | T15P | 0.01 ± 0.063
48 | T15V | -0.009 ± 0.072

Row | Variant | abundance fitness
49 | T15D | -0.195 ± 0.19
50 | T15H | -0.309 ± 0.2
51 | T15N | -0.038 ± 0.21
52 | T15W | -0.058 ± 0.077
53 | T15C | -0.062 ± 0.12
54 | E25M | -0.113 ± 0.074
55 | E25D | 0.016 ± 0.15
56 | E25L | -0.062 ± 0.057
57 | E25I | 0.009 ± 0.22
58 | E25Q | -0.01 ± 0.11
59 | E25N | 0.108 ± 0.18
60 | E25K | 0.15 ± 0.24
61 | E25T | -0.065 ± 0.077
62 | E25C | -0.22 ± 0.14
63 | E25A | -0.006 ± 0.054
64 | E25F | -0.199 ± 0.12
65 | E25Y | -0.122 ± 0.12
66 | E25P | 0.021 ± 0.07
67 | E25V | -0.064 ± 0.056
68 | E25R | -0.096 ± 0.062
69 | E25H | -0.072 ± 0.14
70 | E25G | -0.074 ± 0.056
71 | E25S | -0.038 ± 0.055
72 | F23C | -0.184 ± 0.11

Row | Variant | abundance fitness
73 | F23G | -1.17 ± 0.19
74 | F23I | 0.047 ± 0.18
75 | F23R | -1.05 ± 0.17
76 | F23E | -1.17 ± 0.31
77 | F23W | -0.442 ± 0.085
78 | F23A | -0.177 ± 0.092
79 | F23H | -0.663 ± 0.078
80 | F23L | -0.066 ± 0.076
81 | F23Q | -0.912 ± 0.18
82 | F23M | -0.021 ± 0.15
83 | F23T | -0.211 ± 0.12
84 | F23V | -0.174 ± 0.078
85 | F23P | -1.07 ± 0.22
86 | F23S | -0.575 ± 0.075
87 | F23K | -0.983 ± 0.41
88 | H29D | -0.079 ± 0.18
89 | H29I | -0.082 ± 0.079
90 | H29M | -0.133 ± 0.16
91 | H29F | 0.062 ± 0.25
92 | H29V | 0.035 ± 0.064
93 | H29T | -0.005 ± 0.085
94 | H29K | -0.004 ± 0.18
95 | H29L | -0.006 ± 0.077
96 | H29N | -0.108 ± 0.25

Row | Variant | abundance fitness
97 | H29P | -0.961 ± 0.16
98 | H29A | -0.013 ± 0.057
99 | H29C | -0.07 ± 0.15
100 | H29G | 0.027 ± 0.065
101 | H29S | -0.041 ± 0.056
102 | H29Y | -0.294 ± 0.2
103 | H29R | -0.111 ± 0.06
104 | H29W | -0.137 ± 0.11
105 | H29Q | -0.025 ± 0.097
106 | H29E | -0.041 ± 0.17
107 | F12M | 0.028 ± 0.16
108 | F12T | -0.031 ± 0.08
109 | F12N | -0.158 ± 0.2
110 | F12H | -0.128 ± 0.2
111 | F12K | -0.143 ± 0.14
112 | F12L | -0.068 ± 0.072
113 | F12I | 0.019 ± 0.17
114 | F12V | -0.045 ± 0.076
115 | F12Y | -0.195 ± 0.25
116 | F12Q | -0.132 ± 0.25
117 | F12R | -0.041 ± 0.063
118 | F12W | 0.005 ± 0.092
119 | F12S | 0.063 ± 0.096
120 | F12E | -0.191 ± 0.15

Row | Variant | abundance fitness
121 | F12P | -0.168 ± 0.13
122 | F12A | 0.038 ± 0.079
123 | F12G | 0.005 ± 0.068
124 | F12D | -0.312 ± 0.24
125 | F12C | -0.04 ± 0.13
126 | Q27T | 0.1 ± 0.12
127 | Q27L | -0.039 ± 0.066
128 | Q27M | -0.006 ± 0.1
129 | Q27R | -0.09 ± 0.071
130 | Q27I | -0.039 ± 0.13
131 | Q27K | 0.051 ± 0.14
132 | Q27E | 0.007 ± 0.071
133 | Q27H | 0.101 ± 0.14
134 | Q27G | -0.144 ± 0.06
135 | Q27V | -0.042 ± 0.051
136 | Q27Y | -0.236 ± 0.13
137 | Q27S | 0.006 ± 0.071
138 | Q27A | -0.116 ± 0.081
139 | Q27N | 0.08 ± 0.41
140 | Q27P | -0.675 ± 0.097
141 | E16S | -0.028 ± 0.05
142 | E16R | 0.026 ± 0.054
143 | E16W | -0.297 ± 0.12
144 | E16A | -0.037 ± 0.066

Row | Variant | abundance fitness
145 | E16F | -0.09 ± 0.13
146 | E16N | 0.026 ± 0.17
147 | E16D | 0.053 ± 0.12
148 | E16Q | 0.202 ± 0.098
149 | E16M | -0.056 ± 0.11
150 | E16P | -0.233 ± 0.075
151 | E16V | -0.104 ± 0.091
152 | E16H | 0.028 ± 0.17
153 | E16I | 0.061 ± 0.22
154 | E16G | -0.065 ± 0.057
155 | E16T | 0.038 ± 0.12
156 | E16L | 0.032 ± 0.07
157 | T24A | -0.053 ± 0.061
158 | T24Q | 0.025 ± 0.17
159 | T24G | -0.014 ± 0.057
160 | T24H | -0.075 ± 0.28
161 | T24F | -0.053 ± 0.1
162 | T24N | -0.005 ± 0.088
163 | T24K | 0.162 ± 0.17
164 | T24E | -0.02 ± 0.16
165 | T24C | -0.193 ± 0.18
166 | T24W | -0.409 ± 0.1
167 | T24P | -0.138 ± 0.059
